Tests used:
[1] = target: HECT domain of HUWE1 (residues 3993-4374), wild type (human) (UniProt Q7Z6Z7); assay: covalent labelling with an activity-based probe (SDS-PAGE, Coomassie); 10 μM E3 and 100 μM Ub-Prg in 50 mM HEPES, 100 mM NaCl, pH 8.0 at 30 °C, quenched with SDS loading dye; only the covalent (vinyl thioether) product is seen
[2] = target: HECT domain of NEDD4-1 (514-900) (UniProt P46934); assay: as above
Sequence of UniProt P46934 (P46934 933-1319): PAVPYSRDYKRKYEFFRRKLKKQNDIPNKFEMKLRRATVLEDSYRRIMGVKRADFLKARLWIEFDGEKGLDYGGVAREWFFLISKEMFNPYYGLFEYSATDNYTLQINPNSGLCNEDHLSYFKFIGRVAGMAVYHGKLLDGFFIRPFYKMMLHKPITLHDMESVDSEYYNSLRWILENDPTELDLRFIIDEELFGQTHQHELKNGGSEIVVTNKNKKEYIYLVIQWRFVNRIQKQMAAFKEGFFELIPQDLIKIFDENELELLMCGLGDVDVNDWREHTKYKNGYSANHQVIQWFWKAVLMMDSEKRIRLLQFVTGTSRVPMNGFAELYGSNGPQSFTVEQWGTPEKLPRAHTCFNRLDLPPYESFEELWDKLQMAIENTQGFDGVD

Sequence of UniProt Q7Z6Z7 (Q7Z6Z7 3993-4374): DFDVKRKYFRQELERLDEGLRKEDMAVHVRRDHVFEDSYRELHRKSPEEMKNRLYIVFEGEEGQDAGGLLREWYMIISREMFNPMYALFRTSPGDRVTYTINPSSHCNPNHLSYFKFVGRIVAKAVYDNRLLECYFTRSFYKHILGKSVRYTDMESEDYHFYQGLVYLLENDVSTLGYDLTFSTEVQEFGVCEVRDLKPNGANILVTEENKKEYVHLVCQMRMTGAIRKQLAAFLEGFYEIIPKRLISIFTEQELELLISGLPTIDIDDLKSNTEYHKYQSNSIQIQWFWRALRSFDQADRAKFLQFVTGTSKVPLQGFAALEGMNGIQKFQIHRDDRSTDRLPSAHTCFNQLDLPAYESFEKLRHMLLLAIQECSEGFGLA

stoichiometry N [1]: 1 | stoichiometry N [2]: 1
Substance: ubiquitin-propargylamine

Reference: PMC8453484
